Drawing on paper PMC8285372, “Biochemical and functional characterization of mutant KRAS epitopes validates this oncoprotein for immunological targeting” (Nature Communications, 2021), this text covers IC50 for 6 molecules.

Holding throughout (assay): fluorescence polarisation
A general note: Polarisation of emitted light reports the rotation of a fluorescent probe.

Experiment [1] addresses soluble HLA-A*11:01 class I molecule (fluorescence polarization assay).
Experiment [2] addresses soluble HLA-A*03:01 class I molecule (fluorescence polarization assay).
Experiment [3] addresses soluble HLA-A*02:01 class I molecule (fluorescence polarization assay).
For experiment [4], the target named is soluble HLA-B*07:02 class I molecule (fluorescence polarization assay).

Broadly, the IC50 is the concentration at which inhibition is half-maximal. On to VVGARGVGK [KRAS G12R 8-16 peptide], for which the IC50 in experiment [1] turned out to be 0.634 µM; in experiment [2] it was 5.3 µM.
For VVVGARGVGK [KRAS G12R 7-16 peptide] the same measures were 0.566 µM and 3.24 µM.
The matching figures for ALLAVGATK [gp17-25 peptide, Melanocyte protein PMEL]: 0.225 µM and 0.962 µM.
As to KLVVVGARGV [KRAS G12R 5-14 peptide], in experiment [3], the IC50 worked out at 20.7 µM.
Still for that read-out and setting: next, KLVVVGAGGV [KRAS 5-14 wild-type peptide]: 10.9 µM.
In turn, GAGGVGKSAL [KRAS 10-19 wild-type peptide] showed an IC50 in experiment [4] of 76.9 µM.
